From US10464978B2, “Peptides and combination of peptides for use in immunotherapy against ovarian cancer and other cancers” (immatics biotechnologies GmbH, priority 2015, dated 2019) come the findings set out here.

The target of this assay is HLA-A*02:01 (Homo sapiens, UniProt P04439, D140Y/D185E/D98H/E176V/E277Q/G131W/G231S/I119V/I121R/I166T/I218V/L300P/L318F/N151K/N90K/P208A/P217A/Q86G/Q94H/R138H/R169H/T345S). Description: MHC binding assay: UV-ligand exchange with beta2m ELISA (peptide exchange yield). Particulars: binding to HLA-A*02:01. In outline:
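Peptide-MHC complexes formed by UV-ligand exchange, a UV-cleavable peptide being replaced by the candidate peptide. Exchange products diluted 100-fold, captured on streptavidin-coated plates for 1h at 37° C, then detected with 2 ug/ml HRP anti-β2m (1h, 37° C) and TMB, absorbance 450 nm; value is exchange yield.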

On to “358 (ALDEYTSEL; listed as Homo sapiens) [compound 358]”, for which the “Peptide exchange (MHC class I binding score, peptide exchange yield)” value (“Peptide exchange” for short) is reported as ““++++” (≥75% = ++++)”.

As for “359 (YLLPESVDL; listed as Homo sapiens) [compound 359]”, the “Peptide exchange” value is ““+++” (≥50 = +++)”. In the case of “361 (ALYELEGTTV; listed as Homo sapiens) [compound 361]”, the “Peptide exchange” value is given as ““+++” (≥50 = +++)”. As for “362 (TLYGLSVLL; listed as Homo sapiens) [compound 362]”, the “Peptide exchange” value is ““+++” (≥50 = +++)”. With “363 (KVLDVSDLESV; listed as Homo sapiens) [compound 363]”, the “Peptide exchange” value was ““++” (≥20% = ++)”. Regarding “364 (LLQNEQFEL; listed as Homo sapiens) [compound 364]”, the “Peptide exchange” value is ““+++” (≥50 = +++)”. On to “365 (YVIDQGETDVYV; listed as Homo sapiens) [compound 365]”, for which the “Peptide exchange” value was ““+++” (≥50 = +++)”. The value for “366 (RLLDMGETDLML; listed as Homo sapiens) [compound 366]” was ““+++” (≥50 = +++)”; that for “367 (SLQNHNHQL; listed as Homo sapiens) [compound 367]” was ““+++” (≥50 = +++)”. The value for “369 (GLFPEHLIDV; listed as Homo sapiens) [compound 369]” was ““+++” (≥50 = +++)”.

On to “370 (SLLQDLVSV; listed as Homo sapiens) [compound 370]”, for which the “Peptide exchange” value is ““+++” (≥50 = +++)”.

Regarding “371 (FLQAHLHTA; listed as Homo sapiens) [compound 371]”, the “Peptide exchange” value is recorded as ““++++” (≥75% = ++++)”. Then “372 (TMLLNIPLV; listed as Homo sapiens) [compound 372]”, with ““++” (≥20% = ++)”; and “373 (SLLEDKGLAEV; listed as Homo sapiens) [compound 373]”, with ““++” (≥20% = ++)”; and “374 (FLLQQHLISA; listed as Homo sapiens) [compound 374]”, with ““++” (≥20% = ++)”. On to “375 (SLTETIEGV; listed as Homo sapiens) [compound 375]”, for which the “Peptide exchange” value was ““++” (≥20% = ++)”. Then “376 (AMFESSQNVLL; listed as Homo sapiens) [compound 376]”, with ““++” (≥20% = ++)”; and “377 (FLLDSSASV; listed as Homo sapiens) [compound 377]”, with ““++” (≥20% = ++)”; and “378 (ALGYFVPYV; listed as Homo sapiens) [compound 378]”, with ““+++” (≥50 = +++)”.

Turning to “379 (IMEGTLTRV; listed as Homo sapiens) [compound 379]”, the “Peptide exchange” value was ““++” (≥20% = ++)”. Then “380 (TLIEDEIATI; listed as Homo sapiens) [compound 380]”, with ““++” (≥20% = ++)”. Then “381 (FIDEAYVEV; listed as Homo sapiens) [compound 381]”, with ““++” (≥20% = ++)”; and “382 (ALQNYIKEA; listed as Homo sapiens) [compound 382]”, with ““++” (≥20% = ++)”.

In the case of “383 (ALLELENSVTL; listed as Homo sapiens) [compound 383]”, the “Peptide exchange” value is ““+++” (≥50 = +++)”.

“384 (ILFANPNIFV; listed as Homo sapiens) [compound 384]”: the “Peptide exchange” value is given as ““+++” (≥50 = +++)”.

With “385 (SLLEQGLVEA; listed as Homo sapiens) [compound 385]”, the “Peptide exchange” value was ““++” (≥20% = ++)”.

Consider “386 (ILFRYPLTI; listed as Homo sapiens) [compound 386]”, for which the “Peptide exchange” value was ““+++” (≥50 = +++)”.

In the case of “387 (ALFQATAEV; listed as Homo sapiens) [compound 387]”, the “Peptide exchange” value is on record as ““++++” (≥75% = ++++)”. For the substance “388 (SLTIDGIRYV; listed as Homo sapiens) [compound 388]”, the “Peptide exchange” value is reported as ““+++” (≥50 = +++)”. Take “389 (LLADVTHLL; listed as Homo sapiens) [compound 389]”: the “Peptide exchange” value is on record as ““++” (≥20% = ++)”.

Turning to “390 (ALFMKQIYL; listed as Homo sapiens) [compound 390]”, the “Peptide exchange” value is recorded as ““+++” (≥50 = +++)”.

As to “391 (YVYPQRLNFV; listed as Homo sapiens) [compound 391]”, the “Peptide exchange” value was ““+++” (≥50 = +++)”. Then “392 (ALLHPQGFEV; listed as Homo sapiens) [compound 392]”, with ““++” (≥20% = ++)”. Regarding “393 (GLLDTQTSQVLTA; listed as Homo sapiens) [compound 393]”, the “Peptide exchange” value is ““++” (≥20% = ++)”. As for “394 (LLAVIGGLVYL; listed as Homo sapiens) [compound 394]”, the “Peptide exchange” value is listed as ““+++” (≥50 = +++)”. On to “395 (ALALGGIAVV; listed as Homo sapiens) [compound 395]”, for which the “Peptide exchange” value was ““++++” (≥75% = ++++)”.

Consider “396 (ALLPDLPAL; listed as Homo sapiens) [compound 396]”, for which the “Peptide exchange” value is ““+++” (≥50 = +++)”.

As for “397 (YLFGERLLEC; listed as Homo sapiens) [compound 397]”, the “Peptide exchange” value is ““+++” (≥50 = +++)”. Consider “398 (KLLEEDGTIITL; listed as Homo sapiens) [compound 398]”, for which the “Peptide exchange” value was ““++” (≥20% = ++)”. Consider “399 (YLFEPLYHV; listed as Homo sapiens) [compound 399]”, for which the “Peptide exchange” value is given as ““+++” (≥50 = +++)”. On to “400 (SLLTEQDLWTV; listed as Homo sapiens) [compound 400]”, for which the “Peptide exchange” value was ““++” (≥20% = ++)”. For the substance “401 (ILLDDTGLAYI; listed as Homo sapiens) [compound 401]”, the “Peptide exchange” value is ““+++” (≥50 = +++)”. The value for “402 (VLFSGALLGL; listed as Homo sapiens) [compound 402]” was ““++” (≥20% = ++)”. As to “403 (KLYDRILRV; listed as Homo sapiens) [compound 403]”, the “Peptide exchange” value is recorded as ““++” (≥20% = ++)”. For “405 (ALYDVFLEV; listed as Homo sapiens) [compound 405]”, the “Peptide exchange” value was ““++” (≥20% = ++)”. On to “407 (YLMDLINFL; listed as Homo sapiens) [compound 407]”, for which the “Peptide exchange” value is recorded as ““+++” (≥50 = +++)”.

For “408 (VLDDSIYLV; listed as Homo sapiens) [compound 408]”, the “Peptide exchange” value is recorded as ““++” (≥20% = ++)”. The value for “409 (LLDAMNYHL; listed as Homo sapiens) [compound 409]” was ““++” (≥20% = ++)”; that for “412 (YLDDLNEGVYI; listed as Homo sapiens) [compound 412]” was ““++” (≥20% = ++)”; that for “426 (RLADKSVLV; listed as Homo sapiens) [compound 426]” was ““+++” (≥50 = +++)”. On to “427 (ALLPLSPYL; listed as Homo sapiens) [compound 427]”, for which the “Peptide exchange” value was ““+++” (≥50 = +++)”. For “428 (KLGHTDILVGV; listed as Homo sapiens) [compound 428]”, the “Peptide exchange” value was ““++” (≥20% = ++)”. As for “429 (GLVNDLARV; listed as Homo sapiens) [compound 429]”, the “Peptide exchange” value is given as ““++” (≥20% = ++)”. “430 (HLYSSIEHLTT; listed as Homo sapiens) [compound 430]”: the “Peptide exchange” value is recorded as ““+++” (≥50 = +++)”. With “431 (SLVNVVPKL; listed as Homo sapiens) [compound 431]”, the “Peptide exchange” value was ““++” (≥20% = ++)”.

On to “432 (TLIEESAKV; listed as Homo sapiens) [compound 432]”, for which the “Peptide exchange” value is listed as ““++” (≥20% = ++)”.

As for “433 (AMLNEPWAV; listed as Homo sapiens) [compound 433]”, the “Peptide exchange” value is recorded as ““+++” (≥50 = +++)”. On to “434 (KVSNSGITRV; listed as Homo sapiens) [compound 434]”, for which the “Peptide exchange” value is on record as ““++” (≥20% = ++)”. Regarding “436 (HLAEVSAEV; listed as Homo sapiens) [compound 436]”, the “Peptide exchange” value is recorded as ““+++” (≥50 = +++)”. “437 (SMAPGLVIQAV; listed as Homo sapiens) [compound 437]”: the “Peptide exchange” value is given as ““+++” (≥50 = +++)”.

For the substance “438 (KLLPLAGLYL; listed as Homo sapiens) [compound 438]”, the “Peptide exchange” value is on record as ““++++” (≥75% = ++++)”.
